B1: (Rattus norvegicus) (protein)
chain: MAQTPAFNKPKVELHVHLDGAIKPETILYYGKKRGIDLPADTVEGLRNIIGMDKPLSLPDFLAKFDYYMPAIAGCREAIKRIAYEFVEMKAKEGVVYVEVRYSPHLLANSKVDPIPWNQAEGDLTPDEVVDLVNQGLQEGEQAFGIKVRSILCCMRHQPSWSPEVLELCKKYHQKTVVAMDLAGDETIEGSSLFPGHVEAYEGAVKDGIHRTVHAGEVGSAEVVREAVDILKTERVGHGYHTIEDEALYNRLLKENMHFEVCPWSSYLTGAWNPKTTHAVVRFKDDQANYSLNSDDPLIFKSTVDTDYQMVKKDMGFTEEEFKRLNINAAKSSFLPEDEKKELLERLYKEYQ
B2: Alanine racemase, biosynthetic (Escherichia coli K-12), P0A6B4 (protein)
chain: MQAATVVINRRALRHNLQRLRELAPASKMVAVVKANAYGHGLLETARTLPDADAFGVARLEEALRLRAGGITKPVLLLEGFFDARDLPTISAQHFHTAVHNEEQLAALEEASLDEPVTVWMKLDTGMHRLGVRPEQAEAFYHRLTQCKNVRQPVNIVSHFARADEPKCGATEKQLAIFNTFCEGKPGQRSIAASGGILLWPQSHFDWVRPGIILYGVSPLEDRSTGADFGCQPVMSLTSSLIAVREHKAGEPVGYGGTWVSERDTRLGVVAMGYGDGYPRAAPSGTPVLVNGREVPIVGRVAMDMICVDLGPQAQDKAGDPVILWGEGLPVERIAEMTKVSAYELITRLTSRVAMKYVD

Tests used:
[1] = substrate: OC[C@@H]1CC[C@H](n2cnc3c(Cl)ncnc32)O1; test: (§1) Prodrug conversion in rat blood assessed as Km for adenosine deaminase-mediated didanosine formation by HPLC analysis; type: ADME, tissue-based
[2] = substrate: OC[C@@H]1CC[C@H](n2cnc3c(F)ncnc32)O1; test: as §1; type: ADME, tissue-based
[3] = substrate: OC[C@@H]1CC[C@H](n2cnc3c(Br)ncnc32)O1; test: as §1; type: ADME, tissue-based
[4] = substrate: C[C@H](N)C(=O)O; conditions: Escherichia coli B
Description: (§2) Substrate activity at Escherichia coli B alanine racemase assessed as Km

[5] = substrate: N[C@@H](CF)C(=O)O; conditions: Escherichia coli B
Description: as §2

[6] = substrate: N[C@H](CF)C(=O)O; conditions: Escherichia coli B
Description: as §2

| Protein | Km [1] [µM] | Km [2] [µM] | Km [3] [µM] | Km [4] [µM] | Km [5] [µM] | Km [6] [µM] |
| --- | --- | --- | --- | --- | --- | --- |
| B1 | 17000 | 720 | 16000 | – | – | – |
| B2 | – | – | – | 1300 | 50 | 2400 |

Reference: ChEMBL document CHEMBL4613261, “Metabolic and Pharmaceutical Aspects of Fluorinated Compounds” (J Med Chem, 2020)
